Assay results published in patent US20240041978A1, “LA PROTEIN AS A NOVEL REGULATOR OF OSTEOCLASTOGENESIS” (The U.S.A., as Represented by the Secretary, Department of …, priority 2021, published 2024).
Residue numbers refer to the chain shown, from its start. Names may count otherwise.

T1: La protein (Lupus autoantigen), native, in lysates of fusing human osteoclasts (human, UniProt P05455 1-408, limits assumed)
T1 construct: Endogenous La from monocyte-derived human osteoclasts 3 days post-RANKL; also called native La; SSB
T1 sequence: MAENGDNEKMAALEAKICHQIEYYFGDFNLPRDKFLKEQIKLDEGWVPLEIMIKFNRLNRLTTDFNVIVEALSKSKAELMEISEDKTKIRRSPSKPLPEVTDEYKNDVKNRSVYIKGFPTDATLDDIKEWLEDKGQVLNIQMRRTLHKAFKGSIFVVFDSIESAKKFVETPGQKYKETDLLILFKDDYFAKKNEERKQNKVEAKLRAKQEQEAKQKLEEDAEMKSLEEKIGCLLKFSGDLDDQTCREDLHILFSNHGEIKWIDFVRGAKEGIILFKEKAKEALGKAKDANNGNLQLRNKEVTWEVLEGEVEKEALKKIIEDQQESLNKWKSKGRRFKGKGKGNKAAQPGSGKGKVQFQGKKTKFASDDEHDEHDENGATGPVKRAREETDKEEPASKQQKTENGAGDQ

B1: Annexin A1 (Anx A1), native, in fusing human osteoclasts (other, UniProt P04083 2-346, looked up)
chain: AMVSEFLKQAWFIENEEQEYVQTVKSSKGGPGSAVSPYPTFNPSSDVAALHKAIMVKGVDEATIIDILTKRNNAQRQQIKAAYLQETGKPLDETLKKALTGHLEEVVLALLKTPAQFDADELRAAMKGLGTDEDTLIEILASRTNKEIRDINRVYREELKRDLAKDITSDTSGDFRNALLSLAKGDRSEDFGVNEDLADSDARALYEAGERRKGTDVNVFNTILTTRSYPQLRRVFQKYTKYSKHDMNKVLDLELKGDIEKCLTAIVKCATSKPAFFAEKLHQAMKGVGTRHKALIRIMVSRSEIDMNDIKAFYQKMYGISLCQAILDETKGDYEKILVALCGGN
B2: D371A,D374A La: uncleavable mutant of FL La, caspase cleavage sites disrupted, overexpressed from plasmid (protein, UniProt P05455 1-408, looked up, variant D371A D374A)
chain: T1 sequence with D371A, D374A
modifications: full-length
notes: uncleavable mutant of FL La, caspase cleavage sites disrupted, overexpressed from plasmid
B3: Annexin A4 (Anx A4), native, in fusing human osteoclasts (other, UniProt P09525 2-319, looked up)
chain: ATKGGTVKAASGFNAMEDAQTLRKAMKGLGTDEDAIISVLAYRNTAQRQEIRTAYKSTIGRDLIDDLKSELSGNFEQVIVGMMTPTVLYDVQELRRAMKGAGTDEGCLIEILASRTPEEIRRISQTYQQQYGRSLEDDIRSDTSFMFQRVLVSLSAGGRDEGNYLDDALVRQDAQDLYEAGEKKWGTDEVKFLTVLCSRNRNHLLHVFDEYKRISQKDIEQSIKSETSGSFEDALLAIVKCMRNKSAYFAEKLYKSMKGLGTDDNTLIRVMVSRAEIDMLDIRAHFKRLYGKSLYSFIKGDTSGDYRKVLLVLCGGDD

Experiments:
[1] = biological target: T1, La protein (Lupus autoantigen), native, …; test: co-immunoprecipitation with α-La on magnetic beads from DTSSP-crosslinked osteoclast lysates, immunoblot
[2] = test system: human, monocyte-derived osteoclasts; test: Bone resorption assay (fluoresceinamine-labeled chondroitin sulfate on calcium phosphate-coated plates); type: cell-based; conditions: overexpression, normalized to empty plasmid
Description: There is a relationship between osteoclast fusion and bone resorption (Makris and Saffar, Arch Oral Biol 27, 965-969, doi:10.1016/0003-9969(82)90104-2 (1982); Piper et al., Anat Embryol (Berl) 186, 291-299, doi:10.1007/BF00185977 (1992); Moller et al., Int J Mol Sci 21, doi:10.3390/ijms21176368 (2020)). It was hypothesized that by regulating osteoclast size, La also regulates bone resorption. This hypothesis was evaluated by differentiating osteoclasts on fluoresceinated calcium phosphate, a biomimetic of bone, and assessed osteoclast-dependent bone resorption by the release of fluorescein into the media (FIG. 5A). […] Overexpression of La 1-375 promoted bone resorption, while the uncleavable La mutant, D371,374A, had no effect (FIG. 5B).
Bone Resorption: Bone resorption was evaluated using bone resorption assay kits from Cosmo Bio USA according to the manufacturer's instructions. Briefly, fluoresceinamine-labeled chondroitin sulfate was used to label 24-well, calcium phosphate-coated plates. Human, monocyte-derived osteoclasts were differentiated as described above, using alpha MEM without phenol red. Media were collected at 4-5 days post RANKL addition, and fluorescence intensity within the media was evaluated as recommended by the manufacture.

[3] = test system: human monocyte-derived osteoclasts; test: Osteoclast fusion assay (number of fusion events, fluorescence microscopy); type: cell-based; conditions: overexpression from expression plasmid vs empty plasmid, human osteoclasts
Description: Osteoclasts: Elutriated monocytes from healthy donors were obtained. Cells were plated at 2.9×10^5 per cm^2 in 35 mm dishes with polymer coverslip bottoms (Ibidi #81156) for imaging or 35 mm or 10 cm dishes for biochemical experiments in complete media [α-MEM supplemented with 10% Fetal Bovine Serum (FBS) and penicillin-streptomycin-L-glutamine (Gibco Invitrogene #12571063; #26140079 and #10378016, respectively)]. Monocytes were differentiated to M2 macrophages in the presence of 100 ng/ml M-CSF for 6 days and then differentiated with 100 ng/ml M-CSF and 100 ng/ml RANKL for 3 days unless indicated otherwise. RAW 264.7 cells (ATCC, Manassas, VA, #TIB-71) were maintained in DMEM supplemented with 10% FBS to a maximum of 8 passages. RAW 264.7 cells were differentiated to osteoclasts in the presence of 100 ng/ml murine RANKL for 5 days. To separate unfused mononucleated and fused, multinucleated RAW 264.7 cells into separate fractions, advantage was taken of the much stronger adherence of multinucleated cells to culture dish plastic. After washing in PBS, mixed RAW cultures (following RANKL differentiation) were left in Ca^2+ and Mg^2+ free PBS for 10 minutes at room temperature. Culture dishes were then tapped on the lab bench and a large portion of unfused, mononucleated RAW cells were released, and these released cells were collected via centrifugation. This process was repeated 2-4 times until dishes were left with a population of primarily fused, multinucleated syncytia. Mononucleated and multinucleated cell fractions were then processed for biochemical or imaging experiments as described below.
Constructs & Recombinant proteins & Transfection: Recombinant La 1-408, 1-375, 1-375 Q20A_Y24A_D33I, 1-187 and 188-375 were amplified with primers designed with overlapping sequences and inserted between NdeI/HindIII in the V78 pET28A E. coli expression vector, adding to each a N-terminal 6×his affinity tag. La 1-408 was expressed as a recombinant protein in E. coli and purified using IMAC columns by SD Biosciences (San Diego, CA). The remaining constructs were transformed into BL2 (DE3) chemically competent E. coli (Thermo Fisher Scientific) and protein expression was induced with IPTG. Cells were lysed with Bugbuster (Sigma), and 6×his-La proteins were affinity purified using HisPur Cobalt Spin columns (Thermo Fisher Scientific), each according to the manufacturer's instructions. Endotoxin contaminates were depleted from affinity purified 6×his-La proteins using Pierce high-capacity endotoxin removal columns (Thermo Fisher Scientific), according to the manufacturer's instructions. Proteins were then sterile filtered, aliquoted and kept at −80 C.
Plasmids were introduced into primary osteoclasts at day 2 of RANKL stimulation via jetPRIME (Polyplus Transfection). FLAG-La 1-408, FLAG-La 1-375 and FLAG-La 1-375 Q20A_Y24A_D33I plasmids were a gift of the Maraia Lab (NICHD). Briefly, SSB (UniProt P05455) was inserted between HindIII and BamHI the pFLAG-CMV2 vector (Sigma). “Uncleavable” La was produced by taking the FLAG-La 1-408 plasmid and making two point mutations at amino acids D371A and D374A, abrogating the caspase cleavage sites at the C-terminal region of the protein (Emory Integrated Genomics Core). siRNA were introduced into primary osteoclasts after 1 day of RANKL stimulation via Lipofectamine RNAiMAX (Thermo Fisher Scientific). Non-targeted (Cat #4390843) and SSB-targeted (Cat #4392420_ID:s13469) siRNA were introduced at a concentration of 5 ng/ml (Silencer Select, Ambion).
Fusion Assays: Osteoclast fusion in the culture systems was evaluated by fluorescence microscopy (Verma et al., J Biol Chem 293, 254-270, doi:10.1074/jbc.M117.809681 (2018)). Briefly, cells were fixed with 4% paraformaldehyde at timepoints of interest, permeabilized with 0.1% TRITON™ X-100 and blocked with 5% FBS. Cells were then stained with phallodin-ALEXAFLURO®488 and Hoechst to label cells' actin cytoskeleton and nuclei, respectively. […]

Row | Molecule | binding result [1] | bone resorption [2] | osteoclast fusion (fusion events in syncytia with 3+ nuclei) [3]
1 | B1 | no binding |  | 
2 | B2 |  | no effect | no effect
3 | B3 | no binding |  | 
